In US5968751A, “Method for detecting the presence of protein C antibody in a fluid sample” (The Scripps Research Institute, priority 1997, dated 1999):
pIC50: −log10 of the molar value. No end group written: not given here.

What was measured:
Factor Xa = target: T1, Factor Xa (Homo sapiens, UniProt P00742); test: Factor Xa amidolytic activity towards chromogenic substrates; type: biochemical
T1 construct: purchased Enzyme Research Laboratories, Southbend, Ind
Experimental: To determine the effect of the APC-inhibiting peptides, PC311-325 and PC142-155, on the amidolytic activity of Factor Xa, amidolytic assays as described for APC in Example 5a3 were performed using 0.15 nM Factor Xa in the presence of increasing amounts of peptide. Peptide PC311-325 ranged in concentration from 0 to 100 μM whereas peptide PC142-155 ranged in concentration from 0 to 50 μM.
For the assay, 100 μl of 0.15 nM factor Xa, prepared in Example 5a5) were admixed with separate aliquots of either peptide prepared in TBS-BSA at pH 7.4 containing 0.02% NaN3 and 2 mM CaCl2 to form APC-peptide admixtures. After maintenance of the admixtures for 30 minutes at 37° C., 50 μl of 2.4 mM S-2222 in the same buffer were admixed to initiate the amidolytic reaction. The hydrolysis of the substrate was measured as described before.

APC = APC (Homo sapiens, UniProt P04070); test: APTT and Xa-1-stage coagulation assays, inhibition of APC anticoagulant activity; type: biochemical; parameters: Protein C consists of a 155 amino acid residue light chain and a 262 amino acid residue heavy chain; from tissue; host or cells: human plasma factor IX concentrate
Experimental: The effect of the synthetic peptides on APC anticoagulant activity were determined using the APTT assay in the presence of either normal citrate anticoagulated plasma (NHP) or protein S depleted plasma (PSDP). The assays were performed essentially as described. See Marlar et al., Blood, 59:1067-1072 […]; Suzuki et al., J. Biol. Chem., 258:163-168 (1983); Gruber et al., Blood, 73:639-642 (1989); Ohlin et al., Biochem., 29:644-651 (1990). NHP was purchased from George King Bio-Medical, Inc. (Overland Park, Kans.). PSDP was prepared from a normal human citrate-anticoagulated plasma pool from ten healthy donors. Protein S was immunodepleted from the NHP by immunoaffinity chromatography of NHP over an anti-protein S antibody column to form PSDP. The anti-protein S antibody column was prepared by coupling 100 mg of a monoclonal, high-affinity, calcium-independent anti-PS antibody, designated S7, to 30 ml of CNBr-activated Sepharose 4B (Pharmacia) as described in Example 2cl).
For the APTT assay, APC was prepared as described in Example 2c2). […] The concentration of the APC used in the assay was initially optimized with respect to the sensitivity of the assay towards APC-induced prolongation of clotting time compared to clotting time without APC.
Once the optimal concentration of APC was determined, peptides from the heavy and light chains of PC and control scrambled peptides listed below in Example 5a2) in Tables 6 and 7 were then separately admixed for a final concentration of 500 μM with 10 nM APC in 100 μl of TBS-BSA at pH 7.4 to form peptide-APC admixtures. Peptides were prepared as described in Example 1. The resulting admixtures were maintained for ten minutes at 37° C. Separate aliquots of peptides maintained under the same conditions in the absence of APC served as controls for the inhibitory effect of synthetic peptides on APC anticoagulant activity. After the maintenance period, 100 μl of NHP and 100 μl APTT-reagent Thrombosil (Ortho Diagnostics, Raritan, N.J.) were admixed into each peptide admixture and maintained for 200 seconds at 37° C. to form a pre-coagulation admixture. In some experiments, PSDP was used in the place of NHP to determine the effect of Protein S on the assay system. Coagulation was then initiated by the admixture of 100 μl of 30 mM CaCl2 in TBS prewarmed to 37° C. to each of the pre-coagulation admixtures. The time for clot formation was measured by an Electra 700 Automatic Coagulation Timer (Medical Laboratory Automation, Inc., Mount Vernon, N.Y.). Each peptide's effect was determined in duplicate.
For peptides at a concentration of 500 μM that inhibited at least 50% of APC anticoagulant activity, analysis of dose-response was subsequently conducted.
For testing the inhibition of the synthetic peptides on APC activity described above, Xa-1-stage coagulation assays were also performed as described. See Seegers et al., Thrombosis Res., 13:233-243 (1978); Marlar et al., supra; and Walker et al., J. Biol. Chem., 265:1484-1489 (1990).

[1] = mean values of APTT and Xa-1 stage assays, NHP, control peptide at 500 μM (±10%)

APC, sequence (P04070 43-197 limits assumed): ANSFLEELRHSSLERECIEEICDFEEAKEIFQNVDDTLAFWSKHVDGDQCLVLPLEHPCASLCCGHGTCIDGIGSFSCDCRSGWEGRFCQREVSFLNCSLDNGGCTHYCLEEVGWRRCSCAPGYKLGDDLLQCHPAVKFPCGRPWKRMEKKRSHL
APC, sequence (P04070 212-450 limits assumed): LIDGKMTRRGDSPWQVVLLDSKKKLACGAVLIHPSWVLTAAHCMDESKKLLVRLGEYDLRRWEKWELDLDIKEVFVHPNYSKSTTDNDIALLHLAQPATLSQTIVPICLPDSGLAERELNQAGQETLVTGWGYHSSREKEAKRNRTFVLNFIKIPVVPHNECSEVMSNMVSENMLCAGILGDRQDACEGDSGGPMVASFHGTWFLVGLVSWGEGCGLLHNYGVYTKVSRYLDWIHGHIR
T1 sequence (P00742 41-179 limits assumed): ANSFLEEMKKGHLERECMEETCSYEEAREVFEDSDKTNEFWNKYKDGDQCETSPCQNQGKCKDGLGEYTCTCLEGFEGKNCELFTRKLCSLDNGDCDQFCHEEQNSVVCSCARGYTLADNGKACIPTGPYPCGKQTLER
T1 sequence (P00742 235-488 limits assumed): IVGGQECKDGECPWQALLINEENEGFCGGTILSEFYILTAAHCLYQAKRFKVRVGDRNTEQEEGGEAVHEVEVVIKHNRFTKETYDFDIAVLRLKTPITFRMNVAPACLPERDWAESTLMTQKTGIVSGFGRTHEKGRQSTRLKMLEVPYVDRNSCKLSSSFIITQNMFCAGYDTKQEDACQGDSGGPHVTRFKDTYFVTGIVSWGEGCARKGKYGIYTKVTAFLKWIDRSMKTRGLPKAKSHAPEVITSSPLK

Substance | effect on Factor Xa amidolytic activity towards chromogenic substrates (Factor Xa) | 90% inhibition of APC anticoagulant activity (APC; APTT and Xa-1-stage assays in NHP and PSDP) | pIC50 (APC; APTT and Xa-1-stage assays in NHP and PSDP, read-out: 50% inhibition of APC anticoagulant activity) | IC50 (concentration of peptide that inhibits 50% of APC anticoagulant activity) (APC; [1]) | IC90 ** μM (concentration of peptide that inhibits 90% of APC anticoagulant activity) (APC; [1]) | effect on APC anticoagulant activity (APC; various concentrations up to 500 μM peptide)
KRNRTFVLNFIKIPV-NH2 [PC311-325, Lys-Arg-Asn-Arg-Thr-Phe-Val-Leu-Asn-Phe-Ile-Lys-Ile-Pro-Val] | no significant effect | approximately 50 μM | 4.70 to 5.15 |  |  | 
MHKLREGKWRPKSR [Scrambled peptide, reference compound] | no significant effect |  |  |  |  | 
VKFTIRVFNPRNLKI [Control Peptide, reference compound] |  |  |  | no effect | no effect | no significant effect
